Experimental data reported in publication PMC12080921 (2025).

B1: PmSLP-1^15-318 (domain or fragment)
chain: MEKRTVTIPQAQKVAEKPALTIQTVVTSPTTPIKAPSLAPTIDTAPKQNPVPTAQITATLPAEPVKVPVLIPEVNKTLLETSTNPVKDSYNKDAVFTYELIANPDADYSDQKLILKKEISYIKLNLGINQDNKNAPSYIFNLLDDNVYYGFYRDTQDMNRIENKYTYAFKKEAENFDNLQKFNATYEGQFWFSSIDTPNVPTVARAFLTYNNGRVDGEILAKHWNEKLFQITGFDNNPRKVEIFPTVEYLPNSGTRLTKGATSPHRFQMDLHFINSTNGEKNKYLVGQGSTEQYWGVLGMEKKQELALVPR
B2: biotinylated bovine FI (enzyme)
chain 1: EDNFRKRGKSKAVKKSEAHHAPEASLSKETEASSEVKPTSTQDTSQKDFVDKKCLTEKHTHLSCNKVFCQPWQKCIDGTCLCKLPYQCPKNGTRVCSTNGKSYSTYCQQKSFECYRPEAKFLKSGACTGGGQFSVSLSNGKQDSEGIVAVKLADLDTKMFVCGDSWSITEANVACIDRGFQLGALDTHRRDPDPNSAECLHVRCRGLETSLAECTFTKGVHNSEGLAGVVCYTESAAPPKKDSFQCVNGKRIPQKKACDGVNDCVDKSDELCCKDCRGEGFLCKSGVCIPKQYKCNGELDCITGEDEVGCEETGHPEIKEAAEMLTADMDAERKFTKSFLPKLSCGVKNNMHI
chain 2: VVGGKPAKMGEFPWQMAIKEGDKIHCGGIYIGGCWILTAAHCVRISRMHRYQIWTSFTDWLRPGFQTVVHSVNRIIIHENYNGTTYQNDIALIEMKKRPNEKECVLSKSIPACVPWSPYLFQPNDKCIVSGWGREKDNQKVYSLRWGEVHLINNCSEFYPGRYFEKEMQCAGTDDGSIDACKGDSGGPLVCQDVNNVTYVWGVVSWGENCGKSEFPGVYTKVANYFDWISQHVGRSLISQHNI
modifications: biotin (EZ-link NHS-biotin; sites not stated) | biotin (EZ-link NHS-biotin; sites not stated)

What was measured:
[1] = target: B2; test: BLI
[2] = target: B2; test: BLI; kinetic fit
[3] = target: T1, PmSLP-1^95-318 SERp (Pasteurella multocida strain 36950); test: BLI; kinetic fit
[4] = target: T1, PmSLP-1^95-318 SERp; test: BLI

| Binder | koff [1] [s⁻¹] | Kd [2] [nM] | Kd [3] [nM] | koff [4] [s⁻¹] |
| --- | --- | --- | --- | --- |
| B1 | 0.0059 | 18 |  |  |
| B2 |  |  | 30 | 0.008 |
